{"source": "patent US20120213763A1", "about": "(COUNCIL OF SCIENTIFIC AND INDUSTRIAL RESEARCH, published 2012)", "proteins": {"B1": {"name": "human plasminogen (HPG) (protein)", "chain": "KVYLSECKTGNGKNYRGTMSKTKNGITCQKWSSTSPHRPRFSPATHPSEGLEENYCRNPDNDPQGPWCYTTDPEKRYDYCDILECEEECMHCSGENYDGKISKTMSGLECQAWDSQSPHAHGYIPSKFPNKNLKKNYCRNPDRELRPWCFTTDPNKRWELCDIPRCTTPPPSSGPTYQCLKGTGENYRGNVAVTVSGHTCQHWSAQTPHTHNRTPENFPCKNLDENYCRNPDGKRAPWCHTTNSQVRWEYCKIPSCDSSPVSTEQLAPTAPPELTPVVQDCYHGDGQSYRGTSSTTTTGKKCQSWSSMTPHRHQKTPENYPNAGLTMNYCRNPDADKGPWCFTTDPSVRWEYCNLKKCSGTEASVVAPPPVVLLPDVETPSEEDCMFGNGKGYRGKRATTVTGTPCQDWAAQEPHRHSIFTPETNPRAGLEKNYCRNPDGDVGGPWCYTTNPRKLYDYCDVPQCAAPSFDCGKPQVEPKKCPGRVVGGCVAHPHSWPWQVSLRTRFGMHFCGGTLISPEWVLTAAHCLEKSPRPSSYKVILGAHQEVNLEPHVQEIEVSRLFLEPTRKDIALLKLSSPAVITDKVIPACLPSPNYVVADRTECFITGWGETQGTFGAGLLKEAQLPVIENKVCNRYEFLNGRVQSTELCAGHLAGGTDSCQGDSGGPLVCFEKDKYILQGVTSWGLGCARPNKPGVYVRVSRFVTWIEGVMRNN"}}, "key": {"[1]": {"molecular_target": "T1, bi-pegylated NC 1-383 (SEQ ID NO 493), Cys at N - 1 and at C + 1 position in SK (1-383, G3)", "T1 chain": "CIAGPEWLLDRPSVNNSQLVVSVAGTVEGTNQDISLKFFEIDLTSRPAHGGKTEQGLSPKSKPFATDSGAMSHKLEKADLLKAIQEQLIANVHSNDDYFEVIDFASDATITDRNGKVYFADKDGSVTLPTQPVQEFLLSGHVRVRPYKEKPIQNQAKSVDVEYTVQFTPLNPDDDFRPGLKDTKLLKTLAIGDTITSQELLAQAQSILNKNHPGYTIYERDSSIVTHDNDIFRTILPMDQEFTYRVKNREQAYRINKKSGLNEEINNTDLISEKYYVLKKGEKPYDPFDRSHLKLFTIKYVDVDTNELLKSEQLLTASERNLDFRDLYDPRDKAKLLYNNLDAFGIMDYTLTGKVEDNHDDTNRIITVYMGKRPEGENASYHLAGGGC"}, "[2]": {"molecular_target": "T2, PEGylated SK S105C (SEQ ID NO 33)", "T2 chain": "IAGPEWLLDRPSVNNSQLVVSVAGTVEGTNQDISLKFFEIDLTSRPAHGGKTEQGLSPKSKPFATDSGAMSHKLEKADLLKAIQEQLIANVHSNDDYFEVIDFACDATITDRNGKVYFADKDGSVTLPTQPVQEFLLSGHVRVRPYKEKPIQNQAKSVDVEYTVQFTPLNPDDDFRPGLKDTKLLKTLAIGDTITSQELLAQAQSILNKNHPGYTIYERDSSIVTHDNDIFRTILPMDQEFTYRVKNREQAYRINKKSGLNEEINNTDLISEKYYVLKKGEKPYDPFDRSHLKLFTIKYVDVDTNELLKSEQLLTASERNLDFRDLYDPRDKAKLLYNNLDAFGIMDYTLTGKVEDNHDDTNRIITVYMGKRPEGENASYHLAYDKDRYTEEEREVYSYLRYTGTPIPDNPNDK"}, "[3]": {"molecular_target": "PEG Variants of SEQ ID NO 23 (PEGylated Cysteine variants of fibrin domain fusion form of SK)"}, "[4]": {"molecular_target": "T3, PEGylated SK Ser 258 Cys (SEQ ID NO 49)", "T3 chain": "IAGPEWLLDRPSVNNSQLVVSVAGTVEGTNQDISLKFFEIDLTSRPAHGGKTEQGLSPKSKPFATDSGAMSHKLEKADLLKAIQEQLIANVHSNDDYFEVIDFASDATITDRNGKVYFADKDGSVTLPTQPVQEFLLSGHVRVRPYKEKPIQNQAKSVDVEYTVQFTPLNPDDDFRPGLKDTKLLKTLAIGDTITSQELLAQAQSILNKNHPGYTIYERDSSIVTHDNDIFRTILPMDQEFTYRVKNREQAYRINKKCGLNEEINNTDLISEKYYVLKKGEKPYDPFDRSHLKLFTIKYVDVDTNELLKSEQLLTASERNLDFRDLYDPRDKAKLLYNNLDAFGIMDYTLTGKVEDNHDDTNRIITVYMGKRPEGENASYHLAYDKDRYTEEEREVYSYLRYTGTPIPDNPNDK"}, "[5]": {"molecular_target": "T4, PEGylated SK C-Cys (SEQ ID NO 490), Cys at C + 1 position in SK", "T4 chain": "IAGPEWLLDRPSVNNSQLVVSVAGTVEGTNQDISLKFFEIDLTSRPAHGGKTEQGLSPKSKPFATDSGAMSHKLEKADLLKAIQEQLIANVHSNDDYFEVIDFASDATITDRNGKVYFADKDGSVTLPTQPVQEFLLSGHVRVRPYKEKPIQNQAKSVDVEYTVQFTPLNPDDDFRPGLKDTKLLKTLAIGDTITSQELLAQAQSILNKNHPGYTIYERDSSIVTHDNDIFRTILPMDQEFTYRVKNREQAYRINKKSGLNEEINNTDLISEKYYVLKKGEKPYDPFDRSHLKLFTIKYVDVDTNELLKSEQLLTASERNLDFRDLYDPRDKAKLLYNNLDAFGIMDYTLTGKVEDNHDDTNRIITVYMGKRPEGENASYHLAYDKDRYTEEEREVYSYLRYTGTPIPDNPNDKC"}, "[6]": {"molecular_target": "T5, PEGylated SK D96C (SEQ ID NO 31)", "T5 chain": "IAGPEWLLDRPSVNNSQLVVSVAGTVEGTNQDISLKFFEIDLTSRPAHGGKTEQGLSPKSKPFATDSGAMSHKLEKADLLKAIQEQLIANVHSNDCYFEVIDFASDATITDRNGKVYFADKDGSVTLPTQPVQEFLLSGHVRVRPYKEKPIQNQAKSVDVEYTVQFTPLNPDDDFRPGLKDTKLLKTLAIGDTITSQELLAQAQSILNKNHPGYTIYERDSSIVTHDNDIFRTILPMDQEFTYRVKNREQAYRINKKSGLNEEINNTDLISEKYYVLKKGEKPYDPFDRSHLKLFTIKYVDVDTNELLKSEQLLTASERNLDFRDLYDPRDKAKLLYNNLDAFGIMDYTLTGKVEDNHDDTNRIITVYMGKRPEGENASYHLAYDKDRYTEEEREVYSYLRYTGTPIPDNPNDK"}}, "note": "Several values for one entry are separate records, joined by “and”; a condition that tells them apart may be missing. Equal entries are not always repeated.", "data": [{"protein": "B1", "values": [{"measurement": "Km", "setting": "[1]", "value": 0.48, "unit": "µM"}, {"measurement": "Km", "setting": "[2]", "value": 0.5, "unit": "µM"}, {"measurement": "Km", "setting": "[3]", "value": "0.24 µM and 0.63 µM"}, {"measurement": "Km", "setting": "[4]", "value": 0.5, "unit": "µM"}, {"measurement": "Km", "setting": "[5]", "value": 0.4, "unit": "µM"}, {"measurement": "Km", "setting": "[6]", "value": 0.5, "unit": "µM"}]}]}
